In PMC11625884:

Molecular target: AMBRA1^WD40 (UniProt Q9C0C7)
Experiment: co-IP; AMBRA1 antibody (Proteintech) coupled to Dynabeads, mixed with lysate of SHSY5Y cells overexpressing AMBRA1 constructs; washed; western blot for the protein of interest

UniProt Q9C0C7, sequence (Q9C0C7 whole entry): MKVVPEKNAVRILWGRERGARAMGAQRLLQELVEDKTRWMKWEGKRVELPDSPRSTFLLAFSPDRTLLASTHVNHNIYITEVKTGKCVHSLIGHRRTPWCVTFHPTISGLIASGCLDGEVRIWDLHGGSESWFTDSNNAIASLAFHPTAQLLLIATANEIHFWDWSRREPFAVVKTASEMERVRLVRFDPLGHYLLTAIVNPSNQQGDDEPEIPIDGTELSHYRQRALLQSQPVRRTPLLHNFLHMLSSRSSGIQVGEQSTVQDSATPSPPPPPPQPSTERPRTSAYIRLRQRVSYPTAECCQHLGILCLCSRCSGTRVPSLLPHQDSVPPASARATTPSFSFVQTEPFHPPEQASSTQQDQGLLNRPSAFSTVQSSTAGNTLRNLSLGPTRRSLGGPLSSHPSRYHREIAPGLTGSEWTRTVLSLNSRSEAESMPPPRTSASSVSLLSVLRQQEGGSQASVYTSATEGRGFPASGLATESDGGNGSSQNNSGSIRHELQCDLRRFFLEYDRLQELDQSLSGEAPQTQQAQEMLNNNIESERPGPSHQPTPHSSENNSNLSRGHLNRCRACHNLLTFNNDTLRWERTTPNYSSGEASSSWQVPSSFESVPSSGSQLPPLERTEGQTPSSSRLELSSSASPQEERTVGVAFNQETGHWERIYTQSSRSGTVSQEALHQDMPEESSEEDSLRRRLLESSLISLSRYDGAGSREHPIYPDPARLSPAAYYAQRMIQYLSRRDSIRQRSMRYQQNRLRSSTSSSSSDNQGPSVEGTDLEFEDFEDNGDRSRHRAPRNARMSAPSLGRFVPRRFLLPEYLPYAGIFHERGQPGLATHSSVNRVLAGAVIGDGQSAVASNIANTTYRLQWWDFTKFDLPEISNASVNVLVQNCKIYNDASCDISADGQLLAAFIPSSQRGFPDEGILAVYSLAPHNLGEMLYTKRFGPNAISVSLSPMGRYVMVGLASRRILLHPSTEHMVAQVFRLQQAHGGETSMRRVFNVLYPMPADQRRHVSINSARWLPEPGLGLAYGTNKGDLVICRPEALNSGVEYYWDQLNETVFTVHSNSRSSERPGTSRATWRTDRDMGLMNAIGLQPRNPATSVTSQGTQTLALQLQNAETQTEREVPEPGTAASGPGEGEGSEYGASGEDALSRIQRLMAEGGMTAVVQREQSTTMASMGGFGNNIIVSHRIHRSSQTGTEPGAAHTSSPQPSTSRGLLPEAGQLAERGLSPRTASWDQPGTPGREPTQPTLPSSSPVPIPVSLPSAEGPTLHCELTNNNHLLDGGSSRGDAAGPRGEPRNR

DDB1 (from UniProt Q16531 1-1140) (natural protein)
fold change of the AMBRA1/DDB1 interaction against AMBRA1^WT: 0.5 fold
